Test results from patent US20200024322A1 (Eli Lilly, published 2020).
Each block holds one binder with its values, some of them ahead of it. Numbered stars: 1 amine (or outer) side, 2 acyl side, 3 side chain; on linkers, the order of the positions; unused ones are H or OH. Square brackets hold non-standard residues; d marks the D form. Side chains are listed from the residue outwards. Ends that are not written are not given here. * marks the point of attachment. C18 diacid = O=C(O)CCCCCCCCCCCCCCCCC(=O)*; γGlu = O=C(O)[C@H](CCC(=O)[*:2])N[*:1]; AEEA = NCCOCCOCC(=O)O; Aib = CC(C)(N)C(=O)O

Key:
human GIP receptor = target: T1, human GIP receptor (human, UniProt P48546 22-466); test: [125I]-GIP competition SPA, hGIPR membranes
T1 construct: whole, on cells; also called hGIPR; hGIP-R
T1 sequence (looked up): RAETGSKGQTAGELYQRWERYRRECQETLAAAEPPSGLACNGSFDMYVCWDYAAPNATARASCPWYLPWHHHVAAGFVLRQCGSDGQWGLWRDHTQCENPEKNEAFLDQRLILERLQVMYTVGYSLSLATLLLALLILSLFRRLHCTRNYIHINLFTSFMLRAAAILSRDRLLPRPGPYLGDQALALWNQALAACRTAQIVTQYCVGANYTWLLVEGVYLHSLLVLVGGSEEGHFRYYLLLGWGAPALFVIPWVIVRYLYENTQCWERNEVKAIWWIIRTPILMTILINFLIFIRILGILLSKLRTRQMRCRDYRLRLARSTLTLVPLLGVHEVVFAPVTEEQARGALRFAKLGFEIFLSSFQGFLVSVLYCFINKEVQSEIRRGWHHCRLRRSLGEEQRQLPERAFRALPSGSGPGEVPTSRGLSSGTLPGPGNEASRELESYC
Description: The binding buffer contains 25 mM HEPES, pH 7.4, 2.5 mM CaCl₂, 1 mM MgCl₂, 0.1% (w/v) bacitracin, 0.003% (w/v) TWEEN®-20, and Roche Complete™ Protease Inhibitors without EDTA. […] Plates are sealed and mixed on a plate shaker (setting 6) for 1 minute and read with a PerkinElmer Trilux MicroBeta® scintillation counter after 2.5 to 12 hours of incubation/settling time at room temperature.
(§1) Data are analyzed using four-parameter (curve maximum, curve minimum, IC₅₀, Hill slope) nonlinear regression routines (Genedata Screener, version 12.0.4, Genedata AG, Basal, Switzerland). […] Values for Kᵢ are reported as the geometric mean, with error expressed as the standard error of the mean (SEM) and n is equal to the number of independent replicates (determined in assays performed on different days). Geometric Means are calculated as follows: […]

human GLP-1 receptor = target: T2, human GLP-1 receptor (human, UniProt P43220 24-463); test: [125I]-GLP-1 competition SPA, hGLP-1R membranes
T2 construct: whole, on cells; also called hGLP-1R; hGLP1R
Description: The binding buffer contains 25 mM HEPES, pH 7.4, 2.5 mM CaCl₂, 1 mM MgCl₂, 0.1% (w/v) bacitracin, 0.003% (w/v) TWEEN®-20, and Roche Complete™ Protease Inhibitors without EDTA.
as §1

Ki (human GIP receptor): 0.152 nM
Ki (human GLP-1 receptor): 7.1 nM
B1: Example 269 (peptide)
peptide: Y[Aib]EGTFTSDYSILLDEK([AEEA-AEEA-γGlu-C18 diacid])AQ[Aib]AFIEYLIEGG-NH2
modifications: N-terminus assumed
SMILES: CC[C@H](C)[C@H](NC(=O)[C@H](CC(C)C)NC(=O)[C@H](Cc1ccc(O)cc1)NC(=O)[C@H](CCC(=O)O)NC(=O)[C@@H](NC(=O)[C@H](Cc1ccccc1)NC(=O)[C@H](C)NC(=O)C(C)(C)NC(=O)[C@H](CCC(N)=O)NC(=O)[C@H](C)NC(=O)[C@H](CCCCNC(=O)COCCOCCNC(=O)COCCOCCNC(=O)CC[C@H](NC(=O)CCCCCCCCCCCCCCCCC(=O)O)C(=O)O)NC(=O)[C@H](CCC(=O)O)NC(=O)[C@H](CC(=O)O)NC(=O)[C@H](CC(C)C)NC(=O)[C@H](CC(C)C)NC(=O)[C@@H](NC(=O)[C@H](CO)NC(=O)[C@H](Cc1ccc(O)cc1)NC(=O)[C@H](CC(=O)O)NC(=O)[C@H](CO)NC(=O)[C@@H](NC(=O)[C@H](Cc1ccccc1)NC(=O)[C@@H](NC(=O)CNC(=O)[C@H](CCC(=O)O)NC(=O)C(C)(C)NC(=O)[C@@H](N)Cc1ccc(O)cc1)[C@@H](C)O)[C@@H](C)O)[C@@H](C)CC)[C@@H](C)CC)C(=O)N[C@@H](CCC(=O)O)C(=O)NCC(=O)NCC(N)=O

Ki (human GIP receptor): 0.0958 nM
Ki (human GLP-1 receptor): 2.98 nM
B2: Example 297 (peptide)
peptide: Y[Aib]EGTFTSDYSILLDKK([AEEA-AEEA-γGlu-C18 diacid])AQ[Aib]EFIEYLIAGG-NH2
modifications: N-terminus assumed
SMILES: CC[C@H](C)[C@H](NC(=O)[C@H](CC(C)C)NC(=O)[C@H](Cc1ccc(O)cc1)NC(=O)[C@H](CCC(=O)O)NC(=O)[C@@H](NC(=O)[C@H](Cc1ccccc1)NC(=O)[C@H](CCC(=O)O)NC(=O)C(C)(C)NC(=O)[C@H](CCC(N)=O)NC(=O)[C@H](C)NC(=O)[C@H](CCCCNC(=O)COCCOCCNC(=O)COCCOCCNC(=O)CC[C@H](NC(=O)CCCCCCCCCCCCCCCCC(=O)O)C(=O)O)NC(=O)[C@H](CCCCN)NC(=O)[C@H](CC(=O)O)NC(=O)[C@H](CC(C)C)NC(=O)[C@H](CC(C)C)NC(=O)[C@@H](NC(=O)[C@H](CO)NC(=O)[C@H](Cc1ccc(O)cc1)NC(=O)[C@H](CC(=O)O)NC(=O)[C@H](CO)NC(=O)[C@@H](NC(=O)[C@H](Cc1ccccc1)NC(=O)[C@@H](NC(=O)CNC(=O)[C@H](CCC(=O)O)NC(=O)C(C)(C)NC(=O)[C@@H](N)Cc1ccc(O)cc1)[C@@H](C)O)[C@@H](C)O)[C@@H](C)CC)[C@@H](C)CC)C(=O)N[C@@H](C)C(=O)NCC(=O)NCC(N)=O

Ki (human GIP receptor): 0.107 nM
Ki (human GLP-1 receptor): 5.09 nM
B3: Example 271 (peptide)
peptide: Y[Aib]EGTFTSDYSILLDKK([AEEA-AEEA-γGlu-C18 diacid])AQ[Aib]EFIEYLIEGG-NH2
modifications: N-terminus assumed
SMILES: CC[C@H](C)[C@H](NC(=O)[C@H](CC(C)C)NC(=O)[C@H](Cc1ccc(O)cc1)NC(=O)[C@H](CCC(=O)O)NC(=O)[C@@H](NC(=O)[C@H](Cc1ccccc1)NC(=O)[C@H](CCC(=O)O)NC(=O)C(C)(C)NC(=O)[C@H](CCC(N)=O)NC(=O)[C@H](C)NC(=O)[C@H](CCCCNC(=O)COCCOCCNC(=O)COCCOCCNC(=O)CC[C@H](NC(=O)CCCCCCCCCCCCCCCCC(=O)O)C(=O)O)NC(=O)[C@H](CCCCN)NC(=O)[C@H](CC(=O)O)NC(=O)[C@H](CC(C)C)NC(=O)[C@H](CC(C)C)NC(=O)[C@@H](NC(=O)[C@H](CO)NC(=O)[C@H](Cc1ccc(O)cc1)NC(=O)[C@H](CC(=O)O)NC(=O)[C@H](CO)NC(=O)[C@@H](NC(=O)[C@H](Cc1ccccc1)NC(=O)[C@@H](NC(=O)CNC(=O)[C@H](CCC(=O)O)NC(=O)C(C)(C)NC(=O)[C@@H](N)Cc1ccc(O)cc1)[C@@H](C)O)[C@@H](C)O)[C@@H](C)CC)[C@@H](C)CC)C(=O)N[C@@H](CCC(=O)O)C(=O)NCC(=O)NCC(N)=O

Ki (human GIP receptor): 0.0578 nM
Ki (human GLP-1 receptor): 3.03 nM
B4: Example 298 (peptide)
peptide: Y[Aib]EGTFTSDYSILLDKK([AEEA-AEEA-γGlu-C18 diacid])AQ[Aib]AFVEYLIEGGPSSG-NH2
modifications: N-terminus assumed
SMILES: CC[C@H](C)[C@H](NC(=O)[C@H](CC(C)C)NC(=O)[C@H](Cc1ccc(O)cc1)NC(=O)[C@H](CCC(=O)O)NC(=O)[C@@H](NC(=O)[C@H](Cc1ccccc1)NC(=O)[C@H](C)NC(=O)C(C)(C)NC(=O)[C@H](CCC(N)=O)NC(=O)[C@H](C)NC(=O)[C@H](CCCCNC(=O)COCCOCCNC(=O)COCCOCCNC(=O)CC[C@H](NC(=O)CCCCCCCCCCCCCCCCC(=O)O)C(=O)O)NC(=O)[C@H](CCCCN)NC(=O)[C@H](CC(=O)O)NC(=O)[C@H](CC(C)C)NC(=O)[C@H](CC(C)C)NC(=O)[C@@H](NC(=O)[C@H](CO)NC(=O)[C@H](Cc1ccc(O)cc1)NC(=O)[C@H](CC(=O)O)NC(=O)[C@H](CO)NC(=O)[C@@H](NC(=O)[C@H](Cc1ccccc1)NC(=O)[C@@H](NC(=O)CNC(=O)[C@H](CCC(=O)O)NC(=O)C(C)(C)NC(=O)[C@@H](N)Cc1ccc(O)cc1)[C@@H](C)O)[C@@H](C)O)[C@@H](C)CC)C(C)C)C(=O)N[C@@H](CCC(=O)O)C(=O)NCC(=O)NCC(=O)N1CCC[C@H]1C(=O)N[C@@H](CO)C(=O)N[C@@H](CO)C(=O)NCC(N)=O

Ki (human GIP receptor): 0.734 nM
Ki (human GLP-1 receptor): 54.3 nM
B5: Example 299 (peptide)
peptide: Y[Aib]EGTFTSDYSILLDKK([AEEA-AEEA-γGlu-C18 diacid])AQ[Aib]AFLEYLIEGGPSSG-NH2
modifications: N-terminus assumed
SMILES: CC[C@H](C)[C@H](NC(=O)[C@H](CC(C)C)NC(=O)[C@H](Cc1ccc(O)cc1)NC(=O)[C@H](CCC(=O)O)NC(=O)[C@H](CC(C)C)NC(=O)[C@H](Cc1ccccc1)NC(=O)[C@H](C)NC(=O)C(C)(C)NC(=O)[C@H](CCC(N)=O)NC(=O)[C@H](C)NC(=O)[C@H](CCCCNC(=O)COCCOCCNC(=O)COCCOCCNC(=O)CC[C@H](NC(=O)CCCCCCCCCCCCCCCCC(=O)O)C(=O)O)NC(=O)[C@H](CCCCN)NC(=O)[C@H](CC(=O)O)NC(=O)[C@H](CC(C)C)NC(=O)[C@H](CC(C)C)NC(=O)[C@@H](NC(=O)[C@H](CO)NC(=O)[C@H](Cc1ccc(O)cc1)NC(=O)[C@H](CC(=O)O)NC(=O)[C@H](CO)NC(=O)[C@@H](NC(=O)[C@H](Cc1ccccc1)NC(=O)[C@@H](NC(=O)CNC(=O)[C@H](CCC(=O)O)NC(=O)C(C)(C)NC(=O)[C@@H](N)Cc1ccc(O)cc1)[C@@H](C)O)[C@@H](C)O)[C@@H](C)CC)C(=O)N[C@@H](CCC(=O)O)C(=O)NCC(=O)NCC(=O)N1CCC[C@H]1C(=O)N[C@@H](CO)C(=O)N[C@@H](CO)C(=O)NCC(N)=O

Ki (human GIP receptor): 0.136 nM
Ki (human GLP-1 receptor): 5.17 nM
B6: Example 320 (peptide)
peptide: Y[Aib]EGTFTSDYSILLDKK([AEEA-AEEA-γGlu-C18 diacid])AQ[Aib]DFIEYLIEGGPSSG-NH2
modifications: N-terminus assumed
SMILES: CC[C@H](C)[C@H](NC(=O)[C@H](CC(C)C)NC(=O)[C@H](Cc1ccc(O)cc1)NC(=O)[C@H](CCC(=O)O)NC(=O)[C@@H](NC(=O)[C@H](Cc1ccccc1)NC(=O)[C@H](CC(=O)O)NC(=O)C(C)(C)NC(=O)[C@H](CCC(N)=O)NC(=O)[C@H](C)NC(=O)[C@H](CCCCNC(=O)COCCOCCNC(=O)COCCOCCNC(=O)CC[C@H](NC(=O)CCCCCCCCCCCCCCCCC(=O)O)C(=O)O)NC(=O)[C@H](CCCCN)NC(=O)[C@H](CC(=O)O)NC(=O)[C@H](CC(C)C)NC(=O)[C@H](CC(C)C)NC(=O)[C@@H](NC(=O)[C@H](CO)NC(=O)[C@H](Cc1ccc(O)cc1)NC(=O)[C@H](CC(=O)O)NC(=O)[C@H](CO)NC(=O)[C@@H](NC(=O)[C@H](Cc1ccccc1)NC(=O)[C@@H](NC(=O)CNC(=O)[C@H](CCC(=O)O)NC(=O)C(C)(C)NC(=O)[C@@H](N)Cc1ccc(O)cc1)[C@@H](C)O)[C@@H](C)O)[C@@H](C)CC)[C@@H](C)CC)C(=O)N[C@@H](CCC(=O)O)C(=O)NCC(=O)NCC(=O)N1CCC[C@H]1C(=O)N[C@@H](CO)C(=O)N[C@@H](CO)C(=O)NCC(N)=O
